From IntAct's records for PubMed 35512704

B1: Speckle-type POZ protein (Homo sapiens), O43791 (parent)
chain: MSRVPSPPPPAEMSSGPVAESWCYTQIKVVKFSYMWTINNFSFCREEMGEVIKSSTFSSGANDKLKWCLRVNPKGLDEESKDYLSLYLLLVSCPKSEVRAKFKFSILNAKGEETKAMESQRAYRFVQGKDWGFKKFIRRDFLLDEANGLLPDDKLTLFCEVSVVQDSVNISGQNTMNMVKVPECRLADELGGLWENSRFTDCCLCVAGQEFQAHKAILAARSPVFSAMFEHEMEESKKNRVEINDVEPEVFKEMMCFIYTGKAPNLDKMADDLLAAADKYALERLKVMCEDALCSNLSVENAAEILILADLHSADQLKTQAVDFINYHASDVLETSGWKSMVVSHPHLVAEAYRSLASAQCPFLGPPRKRLKQS
partner: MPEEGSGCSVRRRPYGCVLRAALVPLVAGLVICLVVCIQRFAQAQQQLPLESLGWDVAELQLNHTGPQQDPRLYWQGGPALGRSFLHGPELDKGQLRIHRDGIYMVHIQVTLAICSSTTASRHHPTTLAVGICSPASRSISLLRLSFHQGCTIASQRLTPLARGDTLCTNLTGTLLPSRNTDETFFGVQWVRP
B2: Speckle-type POZ protein (Homo sapiens), O43791 (parent)
chain: B1 chain
partner: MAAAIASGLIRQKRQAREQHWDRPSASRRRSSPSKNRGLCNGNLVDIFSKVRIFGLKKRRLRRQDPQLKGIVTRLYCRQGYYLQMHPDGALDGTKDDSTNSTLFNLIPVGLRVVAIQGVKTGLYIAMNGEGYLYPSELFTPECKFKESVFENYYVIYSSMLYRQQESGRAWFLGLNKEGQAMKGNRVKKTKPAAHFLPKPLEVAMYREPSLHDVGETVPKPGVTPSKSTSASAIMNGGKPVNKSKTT
B3: Speckle-type POZ protein (Homo sapiens), O43791 (parent)
chain: B1 chain
partner: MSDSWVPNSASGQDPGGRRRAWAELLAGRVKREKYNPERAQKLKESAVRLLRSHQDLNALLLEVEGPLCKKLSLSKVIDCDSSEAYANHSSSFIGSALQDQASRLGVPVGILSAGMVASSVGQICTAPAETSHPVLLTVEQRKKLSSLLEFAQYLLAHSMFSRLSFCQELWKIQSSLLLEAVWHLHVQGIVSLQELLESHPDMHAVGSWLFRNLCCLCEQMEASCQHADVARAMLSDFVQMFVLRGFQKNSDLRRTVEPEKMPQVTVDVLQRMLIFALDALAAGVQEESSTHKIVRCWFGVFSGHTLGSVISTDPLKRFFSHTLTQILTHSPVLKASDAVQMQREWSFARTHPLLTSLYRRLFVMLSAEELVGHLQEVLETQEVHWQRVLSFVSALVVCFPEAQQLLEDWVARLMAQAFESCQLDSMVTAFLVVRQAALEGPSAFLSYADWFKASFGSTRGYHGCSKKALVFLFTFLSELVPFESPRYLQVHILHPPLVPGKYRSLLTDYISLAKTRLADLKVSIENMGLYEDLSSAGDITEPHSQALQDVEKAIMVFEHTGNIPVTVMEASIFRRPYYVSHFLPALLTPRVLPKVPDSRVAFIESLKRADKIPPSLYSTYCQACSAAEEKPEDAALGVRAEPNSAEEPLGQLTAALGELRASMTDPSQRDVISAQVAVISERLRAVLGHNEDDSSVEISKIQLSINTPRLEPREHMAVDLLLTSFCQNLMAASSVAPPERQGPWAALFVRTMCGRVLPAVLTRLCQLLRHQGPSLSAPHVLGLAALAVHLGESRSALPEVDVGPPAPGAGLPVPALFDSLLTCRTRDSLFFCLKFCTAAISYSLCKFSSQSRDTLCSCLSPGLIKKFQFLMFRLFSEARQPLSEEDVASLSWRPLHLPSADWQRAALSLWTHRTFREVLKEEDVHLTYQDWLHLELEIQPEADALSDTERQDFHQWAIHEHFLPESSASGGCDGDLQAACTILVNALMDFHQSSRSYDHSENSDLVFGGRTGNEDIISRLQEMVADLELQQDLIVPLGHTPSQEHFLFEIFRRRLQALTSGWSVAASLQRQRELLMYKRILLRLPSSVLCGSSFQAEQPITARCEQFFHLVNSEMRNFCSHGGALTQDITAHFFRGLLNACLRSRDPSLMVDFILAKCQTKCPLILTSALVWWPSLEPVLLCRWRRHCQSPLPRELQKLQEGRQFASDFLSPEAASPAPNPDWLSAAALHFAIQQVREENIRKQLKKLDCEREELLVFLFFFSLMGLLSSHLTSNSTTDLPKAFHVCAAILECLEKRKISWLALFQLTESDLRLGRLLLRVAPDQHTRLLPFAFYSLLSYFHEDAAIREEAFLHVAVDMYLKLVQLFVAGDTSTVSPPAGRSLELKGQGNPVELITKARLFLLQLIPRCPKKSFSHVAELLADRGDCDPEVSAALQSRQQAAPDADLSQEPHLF
B4: Speckle-type POZ protein (Homo sapiens), O43791 (parent)
chain: B1 chain
partner: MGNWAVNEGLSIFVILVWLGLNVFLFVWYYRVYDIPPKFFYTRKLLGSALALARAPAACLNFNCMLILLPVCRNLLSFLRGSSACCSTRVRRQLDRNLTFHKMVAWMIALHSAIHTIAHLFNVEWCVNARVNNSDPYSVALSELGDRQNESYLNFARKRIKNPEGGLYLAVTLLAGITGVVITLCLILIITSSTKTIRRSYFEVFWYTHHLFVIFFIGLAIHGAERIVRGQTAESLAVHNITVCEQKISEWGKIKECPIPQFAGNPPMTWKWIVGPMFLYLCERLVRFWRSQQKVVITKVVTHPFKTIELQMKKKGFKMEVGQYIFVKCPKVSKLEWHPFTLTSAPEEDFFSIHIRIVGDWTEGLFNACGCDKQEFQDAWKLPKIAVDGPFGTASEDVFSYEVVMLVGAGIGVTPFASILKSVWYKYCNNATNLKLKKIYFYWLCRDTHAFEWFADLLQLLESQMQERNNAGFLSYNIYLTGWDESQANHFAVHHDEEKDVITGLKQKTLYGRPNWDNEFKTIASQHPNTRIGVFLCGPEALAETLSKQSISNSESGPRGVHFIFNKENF
B5: Speckle-type POZ protein (Homo sapiens), O43791 (parent)
chain: B1 chain
partner: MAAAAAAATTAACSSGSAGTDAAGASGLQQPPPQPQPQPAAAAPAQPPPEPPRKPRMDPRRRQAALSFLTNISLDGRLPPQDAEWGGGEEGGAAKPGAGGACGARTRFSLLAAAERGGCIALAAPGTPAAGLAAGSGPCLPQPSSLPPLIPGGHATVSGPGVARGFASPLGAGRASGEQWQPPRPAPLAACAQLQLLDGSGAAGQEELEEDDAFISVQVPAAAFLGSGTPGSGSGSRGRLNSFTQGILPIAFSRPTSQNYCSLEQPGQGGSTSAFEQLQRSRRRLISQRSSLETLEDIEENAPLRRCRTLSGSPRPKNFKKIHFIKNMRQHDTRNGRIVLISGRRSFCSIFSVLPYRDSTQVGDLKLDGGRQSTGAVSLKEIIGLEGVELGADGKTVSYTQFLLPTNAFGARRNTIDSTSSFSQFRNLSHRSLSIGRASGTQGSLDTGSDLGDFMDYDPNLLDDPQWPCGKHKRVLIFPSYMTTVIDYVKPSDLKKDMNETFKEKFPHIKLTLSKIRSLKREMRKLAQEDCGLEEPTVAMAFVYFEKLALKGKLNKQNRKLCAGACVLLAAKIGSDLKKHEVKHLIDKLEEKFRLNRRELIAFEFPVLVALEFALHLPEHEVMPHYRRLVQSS

Variants of: B1
Settings: with cd70_human CD70, P32970

Row | effect of a mutation on the interaction | Variant
1 | with no effect | F102C

Variants of: B2
Settings: with fgf14_human FGF14, Q92915

Row | effect of a mutation on the interaction | Variant
2 | with no effect | F102C

Variants of: B3
Settings: with fanca_human FANCA

Row | effect of a mutation on the interaction | Variant
3 | with no effect | F133L

Variants of: B3
Settings: with fanca_human FANCA
Remark: another data set of the same source

Row | effect of a mutation on the interaction | Variant
4 | with no effect | F102C

Variants of: B3
Settings: with fanca_human FANCA
Remark: another data set of the same source

Row | effect of a mutation on the interaction | Variant
5 | with no effect | Y87C

Variants of: B4
Settings: with cy24b_human CYBB

Row | effect of a mutation on the interaction | Variant
6 | with no effect | F133V

Variants of: B4
Settings: with cy24b_human CYBB
Remark: another data set of the same source

Row | effect of a mutation on the interaction | Variant
7 | with no effect | F133L

Variants of: B4
Settings: with cy24b_human CYBB
Remark: another data set of the same source

Row | effect of a mutation on the interaction | Variant
8 | with no effect | Y87C

Variants of: B4
Settings: with cy24b_human CYBB
Remark: another data set of the same source

Row | effect of a mutation on the interaction | Variant
9 | with no effect | F102C

Variants of: B5
Settings: with cabl1_human CABLES1, Q8TDN4

Row | effect of a mutation on the interaction | Variant
10 | with no effect | Y87C

Variants of: B5
Settings: with cabl1_human CABLES1, Q8TDN4
Remark: another data set of the same source

Row | effect of a mutation on the interaction | Variant
11 | with no effect | F133L

Variants of: B5
Settings: with cabl1_human CABLES1, Q8TDN4
Remark: another data set of the same source

Row | effect of a mutation on the interaction | Variant
12 | with no effect | F133V
